Measurements as given in article doi:10.1101/2021.07.08.451689 (bioRxiv, 2021).

Target: the molecule itself
Experiment: SEC

Protein | binding result
MLKL N-terminal domain of 139 amino acid residues (domain or fragment, human, UniProt Q8NB16 1-139, looked up) MENLKHIITLGQVIHKRCEEMKYCKKQCRRLGHRVLGLIKPLEMLQDQGKRSVPSEKLTTAMNRFKAALEEANGEIEKFSNRSNICRFLTASQDKILFKDVNRKLSDVWKELSLLLQVEQRMPVSPISQGASWAQEDQQ | binds
MLKL N-terminal domain of 154 amino acid residues with mutation D144K (domain or fragment, human, UniProt Q8NB16 1-154, looked up) MENLKHIITLGQVIHKRCEEMKYCKKQCRRLGHRVLGLIKPLEMLQDQGKRSVPSEKLTTAMNRFKAALEEANGEIEKFSNRSNICRFLTASQDKILFKDVNRKLSDVWKELSLLLQVEQRMPVSPISQGASWAQEDQQDADEKRRAFQMLRRD | binds
